Assay results as given in PMC10215022 (mAbs, 2023).

Target: SARS-CoV-2 Delta (B.1.617.2) spike protein RBD, His-tagged (SARS-CoV-2 Delta (B.1.617.2), UniProt P0DTC2)
Experiment: SPR

Binder	Kd	koff	kon
imdevimab (REGN10987) (antibody, V domains shown) VH: QVQLVESGGGVVQPGRSLRLSCAASGFTFSNYAMYWVRQAPGKGLEWVAVISYDGSNKYYADSVKGRFTISRDNSKNTLYLQMNSLRTEDTAVYYCASGSDYGDYLLVYWGQGTLVTVSS VL: QSALTQPASVSGSPGQSITISCTGTSSDVGGYNYVSWYQQHPGKAPKLMIYDVSKRPSGVSNRFSGSKSGNTASLTISGLQSEDEADYYCNSLTSISTWVFGGGTKLTVL	0.11 nM	0.00028 s⁻¹	2.6e+06 M⁻¹ s⁻¹
casirivimab (REGN10933) (antibody, V domains shown) VH: QVQLVESGGGLVKPGGSLRLSCAASGFTFSDYYMSWIRQAPGKGLEWVSYITYSGSTIYYADSVKGRFTISRDNAKSSLYLQMNSLRAEDTAVYYCARDRGTTMVPFDYWGQGTLVTVSS VL: DIQMTQSPSSLSASVGDRVTITCQASQDITNYLNWYQQKPGKAPKLLIYAASNLETGVPSRFSGSGSGTDFTFTISGLQPEDIATYYCQQYDNLPLTFGGGTKVEIK	0.07 nM	0.0002 s⁻¹	2.9e+06 M⁻¹ s⁻¹
